Test results from US20220088148A1 (HANMI PHARM, published 2022).
Numbering of substitutions follows the chain as printed. Bridges are numbered along the chain shown (N, C = ends). Where no end group is shown, it is not given here. [ ]: non-standard residue; d: D form. The star is where a group is joined. Acetyl(2-(4-imidazolyl)) = O=C(Cc1c[nH]cn1)*; Aib = CC(C)(N)C(=O)O

T1: human GIP receptor (human, UniProt P48546 22-466)
T1 sequence (looked up): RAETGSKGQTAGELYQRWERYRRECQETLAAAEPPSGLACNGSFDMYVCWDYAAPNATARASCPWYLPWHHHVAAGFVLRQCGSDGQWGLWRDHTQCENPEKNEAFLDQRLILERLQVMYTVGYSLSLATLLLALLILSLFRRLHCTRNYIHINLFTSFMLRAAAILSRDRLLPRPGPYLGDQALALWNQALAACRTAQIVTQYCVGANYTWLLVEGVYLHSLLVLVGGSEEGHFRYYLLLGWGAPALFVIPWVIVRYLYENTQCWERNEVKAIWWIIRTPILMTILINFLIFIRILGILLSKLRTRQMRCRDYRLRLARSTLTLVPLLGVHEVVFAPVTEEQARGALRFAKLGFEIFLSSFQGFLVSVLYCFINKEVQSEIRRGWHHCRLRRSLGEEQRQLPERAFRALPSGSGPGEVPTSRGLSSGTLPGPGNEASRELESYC

B1: triple agonist of SEQ ID NO: 4 (peptide)
peptide: H[Aib]QGTFTSDVSSYLLGQQQKEFIAWLVKGC
B2: triple agonist of SEQ ID NO: 64 (peptide)
peptide: Y[Aib]QGTFTSDYSKYLDECAAKEFVQWLLDHHPSSGQPPPS
modifications: bridge 16-20; ends not checked
B3: triple agonist of SEQ ID NO: 52 (peptide)
peptide: H[Aib]QGTFTSDYSKYLDEKRQKEFVQWLLDTC
modifications: bridge 16-20; ends not checked
B4: triple agonist of SEQ ID NO: 69 (peptide)
peptide: Y[Aib]QGTFTSDYSKCLDERAAKEFVQWLLDHHPSSGQPPPS
modifications: bridge 16-20; ends not checked
B5: triple agonist of SEQ ID NO: 43 (peptide)
peptide: Y[Aib]QGTFTSDYSKYLDEKRAKEFVQWLLDHHCSSGQPPPS
modifications: bridge 16-20
B6: triple agonist of SEQ ID NO: 34 (peptide)
peptide: H[Aib]QGTFTSDYSKYLDEKRQKEFVNWLLAQKC
modifications: bridge 16-20
B7: triple agonist of SEQ ID NO: 6 (peptide)
peptide: H[Aib]QGTFTSDVSSYLDGQAAKEFVAWLLKGC
modifications: ends and bridges not checked
B8: triple agonist of SEQ ID NO: 68 (peptide)
peptide: Y[Aib]QGTFTSDYSKCLDEKAAKEFVQWLLDHHPSSGQPPPS
modifications: bridge 16-20; ends not checked
B9: triple agonist of SEQ ID NO: 54 (peptide)
peptide: H[Aib]EGTFTSDYSIAMDEIHQKDFVDWLLAEC
modifications: bridge 16-20; ends not checked
B10: triple agonist of SEQ ID NO: 7 (peptide)
peptide: H[Aib]QGTFTSDVSKYLDGQAAKEFVAWLLKGC
modifications: ends and bridges not checked
B11: triple agonist of SEQ ID NO: 57 (peptide)
peptide: H[Aib]QGTFTSDYSIAMDEIHQKDFVNWLLNTC
modifications: bridge 16-20; ends not checked
B12: triple agonist of SEQ ID NO: 51 (peptide)
peptide: H[Aib]QGTFTSDYSKYLDEKRQKEFVQWLLNTC
modifications: bridge 16-20; ends not checked
B13: triple agonist of SEQ ID NO: 66 (peptide)
peptide: Y[Aib]QGTFTSDYSKYLDECRAKDFVQWLLDHHPSSGQPPPS
modifications: bridge 16-20; ends not checked
B14: triple agonist of SEQ ID NO: 50 (peptide)
peptide: H[Aib]QGTFTSDYSKYLDEKRAKEFVQWLLDHHPSSGQPPPSC
modifications: bridge 16-20; ends not checked
B15: triple agonist of SEQ ID NO: 58 (peptide)
peptide: H[Aib]QGTFTSDYSKYLDEKRQKEFVQWLLNTKC
modifications: bridge 16-20; ends not checked
B16: triple agonist of SEQ ID NO: 49 (peptide)
peptide: {Acetyl(2-(4-imidazolyl))}-[Aib]QGTFTSDYSICMDEIHQKDFVNWLLNTK
modifications: bridge 15-19
B17: triple agonist of SEQ ID NO: 35 (peptide)
peptide: H[Aib]QGTFTSDYSIAMDEIHQKDFVNWLLNTKC
modifications: bridge 16-20
B18: triple agonist of SEQ ID NO: 59 (peptide)
peptide: [Acetyl(2-(4-imidazolyl))][Aib]QGTFTSDYSICMDEKHQKDFVNWLLNTK
modifications: bridge 16-20; ends not checked
B19: triple agonist of SEQ ID NO: 55 (peptide)
peptide: H[Aib]QGTFTSDYSIAMDEIHQKDFVNWLLAQC
modifications: bridge 16-20
B20: triple agonist of SEQ ID NO: 61 (peptide)
peptide: [Acetyl(2-(4-imidazolyl))][Aib]QGTFTSDYSIAMDEIACKDFVNWLLNTK
modifications: bridge 16-20; ends not checked
B21: triple agonist of SEQ ID NO: 44 (peptide)
peptide: HGQGTFTSDCSKQLDGQAAQEFVAWLLAGGPSSGAPPPS
B22: triple agonist of SEQ ID NO: 45 (peptide)
peptide: B21 peptide with Q13Y, L14M, E21D
B23: triple agonist of SEQ ID NO: 48 (peptide)
peptide: B21 peptide with Q13Y, A18R, E21D, A24N
B24: triple agonist of SEQ ID NO: 46 (peptide)
peptide: B21 peptide with Q13Y, G16E, A18H
B25: triple agonist of SEQ ID NO: 47 (peptide)
peptide: B21 peptide with Q13Y, A18R
B26: triple agonist of SEQ ID NO: 1 (peptide)
peptide: H[Aib]QGTFTSDVSSYLDGQAAKEFIAWLVKGC
B27: triple agonist of SEQ ID NO: 42 (peptide)
peptide: Y[Aib]QGTFTSDYSKYLDEKRAKEFVQWLLDHHPSSGQPPPSC
modifications: bridge 16-20
B28: triple agonist of SEQ ID NO: 65 (peptide)
peptide: H[Aib]QGTFTSDYSKCLDEKRAKEFVQWLLDHHPSSGQPPPS
modifications: bridge 16-20; ends not checked
B29: triple agonist of SEQ ID NO: 53 (peptide)
peptide: H[Aib]EGTFTSDYSIAMDEIHQKDFVNWLLAQC
modifications: bridge 16-20
B30: triple agonist of SEQ ID NO: 5 (peptide)
peptide: H[Aib]QGTFTSDVSSYLLGQQQKEFIAWLVKGGGPSSGAPPPSC
B31: triple agonist of SEQ ID NO: 60 (peptide)
peptide: [Acetyl(2-(4-imidazolyl))][Aib]QGTFTSDYSIAMDEKHCKDFVNWLLNTK
modifications: bridge 16-20; ends not checked

Columns and labels:
Assay in all cases: cell-based or functional assay
human GLP-1 receptor = human GLP-1 receptor (human, UniProt P43220 24-463)
human GCG receptor = human GCG receptor (human, UniProt P47871 26-477)
human GCG receptor, sequence (P47871 26-477): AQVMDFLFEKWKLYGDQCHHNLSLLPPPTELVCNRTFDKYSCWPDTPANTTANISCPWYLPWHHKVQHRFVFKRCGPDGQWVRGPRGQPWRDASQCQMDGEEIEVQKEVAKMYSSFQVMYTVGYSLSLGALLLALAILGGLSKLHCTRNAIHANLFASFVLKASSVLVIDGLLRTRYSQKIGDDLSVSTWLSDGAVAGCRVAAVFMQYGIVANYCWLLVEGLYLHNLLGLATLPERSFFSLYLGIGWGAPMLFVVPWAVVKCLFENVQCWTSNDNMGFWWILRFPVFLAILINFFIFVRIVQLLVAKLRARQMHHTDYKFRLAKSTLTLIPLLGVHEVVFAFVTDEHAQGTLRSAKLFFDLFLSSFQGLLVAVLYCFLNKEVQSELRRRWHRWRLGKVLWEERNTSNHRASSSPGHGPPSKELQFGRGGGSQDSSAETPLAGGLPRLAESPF

human GIP receptor = target: T1, human GIP receptor

| Binder | In vitro activity (%) vs. GLP-1, cAMP EC50 (human GLP-1 receptor) [%] | In vitro activity (%) vs. Glucagon, cAMP EC50 (human GCG receptor) [%] | In vitro activity (%) vs. GIP, cAMP EC50 (human GIP receptor) [%] |
| --- | --- | --- | --- |
| B1 | 8.5 | < 0.1 | < 0.1 |
| B2 | 64.6 | 60.1 | 92.9 |
| B3 | 44.1 | 7.5 | 0.3 |
| B4 | 24.3 | 9.6 | 62.8 |
| B5 | 12.6 | 88.4 | 3.7 |
| B6 | 19.1 | 0.92 | 0.6 |
| B7 | 17 | < 0.1 | < 0.1 |
| B8 | 27.9 | 8.8 | 107 |
| B9 | 30.6 | 1.4 | 0.1 |
| B10 | 13.7 | < 0.1 | < 0.1 |
| B11 | 11.7 | < 0.1 | 0.3 |
| B12 | 14.4 | 2 | 0.1 |
| B13 | 15.8 | 172 | 17.2 |
| B14 | 67.4 | 50.5 | 2.7 |
| B15 | 39.1 | 2.6 | 0.2 |
| B16 | 29.8 | < 0.1 | 3.3 |

| Binder | In vitro activity (%) vs. GLP-1, cAMP EC50 (human GLP-1 receptor) [%] | In vitro activity (%) vs. Glucagon, cAMP EC50 (human GCG receptor) [%] | In vitro activity (%) vs. GIP, cAMP EC50 (human GIP receptor) [%] |
| --- | --- | --- | --- |
| B17 | 7.5 | < 0.1 | 1.3 |
| B18 | 40.3 | < 0.1 | 4 |
| B19 | 27.1 | 0.7 | 2.4 |
| B20 | 59.8 | < 0.1 | 2.8 |
| B21 | 1.3 | < 0.1 | < 0.1 |
| B22 | 6.6 | < 0.1 | < 0.1 |
| B23 | 1.5 | < 0.1 | < 0.1 |
| B24 | 1.4 | < 0.1 | < 0.1 |
| B25 | 2.4 | < 0.1 | < 0.1 |
| B26 | 3.2 | < 0.1 | < 0.1 |
| B27 | 33.9 | 206 | 7.8 |
| B28 | 95.4 | 25.2 | 11.6 |
| B29 | 161 | 8.4 | 1.3 |
| B30 | 42.1 | < 0.1 | < 0.1 |
| B31 | 106 | < 0.1 | 8.2 |
